The target in this test is IgE of dust mite allergic patient Donor 11 (serum IgE; IgE on the donor's basophils in the histamine release …). As to the kind of experiment: cell-based or functional assay.

B1: Der p 1 variant DP060 (S54N, Q68F) (other)
chain: TNACSINGNAPAEIDLRQMRTVTPIRMQGGCGSCWAFSGVAATESAYLAYRNQNLDLAEQELVDCASFHGCHGDTIPRGIEYIQHNGVVQESYYRYVAREQSCRRPNAQRFGISNYCQIYPPNVNKIREALAQTHSAIAVIIGIKDLDAFRHYDGRTIIQRDNGYQPNYHAVNIVGYSNAQGVDYWIVRNSWDTNWGDNGYGYFAANIDLMMIEEYPYVVIL
As to B1, the “potency to induce histamine release in human basophil assay, relative to nDer p 1” value is 20 fold.
